Paper PMC4742702 (mBio, 2016)
Blank lines part the entries; values can stand above or below the molecule they belong to.

Key:
[1] = molecular target: Tuc2009 BppL (RBP) as in the tripod (Lactococcus phage Tuc2009); experiment: crystal structure
[2] = molecular target: serendipitously cleaved BppL head domain (residues 52 to 173) in the tripod crystal (Lactococcus phage Tuc2009); experiment: crystal structure
[3] = molecular target: trypsin-cleaved Tuc2009 RBP head domain (in the nano-L06 complex) (Lactococcus phage Tuc2009); experiment: crystal structure
[4] = molecular target: BppUct (C-terminal portion of Tuc2009 BppU, residues 194 to 322) (Lactococcus phage Tuc2009); experiment: crystal structure
[5] = molecular target: T1, phage Tuc2009 receptor binding protein (RBP, BppL, ORF53) (Lactococcus phage Tuc2009); experiment: BLI
T1 chain: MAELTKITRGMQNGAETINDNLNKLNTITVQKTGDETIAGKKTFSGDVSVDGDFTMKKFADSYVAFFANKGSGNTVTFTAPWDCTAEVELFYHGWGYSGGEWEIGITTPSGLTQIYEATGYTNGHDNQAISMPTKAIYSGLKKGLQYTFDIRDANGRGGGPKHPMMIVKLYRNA

[6] = molecular target: T2, Tuc2009 tripod BppUctAL complex (BppUct/BppA/BppL) (Lactococcus phage Tuc2009); experiment: BLI
T2 chain 1: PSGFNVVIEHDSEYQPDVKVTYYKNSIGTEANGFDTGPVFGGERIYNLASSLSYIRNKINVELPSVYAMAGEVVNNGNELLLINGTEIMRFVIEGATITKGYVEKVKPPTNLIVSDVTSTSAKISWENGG
T2 chain 2: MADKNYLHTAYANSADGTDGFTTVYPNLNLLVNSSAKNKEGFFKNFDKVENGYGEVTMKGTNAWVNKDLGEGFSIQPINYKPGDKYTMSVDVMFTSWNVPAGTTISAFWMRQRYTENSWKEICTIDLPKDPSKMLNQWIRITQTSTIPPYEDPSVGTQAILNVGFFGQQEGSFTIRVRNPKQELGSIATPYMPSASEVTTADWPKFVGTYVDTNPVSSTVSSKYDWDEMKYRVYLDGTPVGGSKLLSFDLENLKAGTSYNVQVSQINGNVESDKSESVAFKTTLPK
T2 chain 3: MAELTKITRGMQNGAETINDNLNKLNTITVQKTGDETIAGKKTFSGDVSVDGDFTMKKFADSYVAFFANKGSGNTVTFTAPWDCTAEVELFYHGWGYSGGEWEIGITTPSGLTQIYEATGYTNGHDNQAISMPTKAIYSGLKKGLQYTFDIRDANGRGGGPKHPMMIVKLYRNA

Molecule: serendipitously cleaved BppL head domain (residues 52 to 173) in the tripod crystal (domain or fragment)
- stoichiometry N [2]: 3

Molecule: BppUct (C-terminal portion of Tuc2009 BppU, residues 194 to 322) (domain or fragment)
- stoichiometry N [4]: 3

B1: nanobody nano-L06 (VHH)
VHH: QVQLVESGGGSVQAGGSLRLSCTASGFTFDDSDMGWYHQAPGNECELVSAIFSDGSTYYADSVKGRFTISRDNAKNTVYLQMNSLKPEDTAMYYCAAATTTVASPPVRHVCNGYWGQGTQVTVSS
- Kd [5]: 9.1 ± 0.7 nM
- Kd [6]: 9.1 ± 0.6 nM

Results, then the molecule that gave them:

- stoichiometry N [1]: 3
Molecule: Tuc2009 BppL (RBP) as in the tripod (natural protein)

- stoichiometry N [3]: 3
Molecule: trypsin-cleaved Tuc2009 RBP head domain (in the nano-L06 complex) (domain or fragment)
